In assay [1] the target is soluble KIR3DL1*033-Fc (human) (UniProt P43629). The assay is described as follows: SPR (BIACORE T-100). A general note: Surface plasmon resonance follows binding to a sensor surface in real time, without labels.
The target in assay [2] is soluble KIR3DL1*002-Fc (human) (UniProt P43629). The assay is described as follows: SPR (BIACORE T-100).
Assay [3] addresses soluble KIR3DL1*001-Fc (human) (UniProt P43629). As to the kind of experiment: SPR (BIACORE T-100).
The target in assay [4] is soluble KIR3DL1*002-Fc (human) (UniProt P43629). As to the kind of experiment: SPR (BIACORE T-100), kinetics.

pKd: −log10 of the molar value.

Sequence of soluble KIR3DL1*002-Fc (human) (P43629 other isoform, or with tags, fused parts or gaps): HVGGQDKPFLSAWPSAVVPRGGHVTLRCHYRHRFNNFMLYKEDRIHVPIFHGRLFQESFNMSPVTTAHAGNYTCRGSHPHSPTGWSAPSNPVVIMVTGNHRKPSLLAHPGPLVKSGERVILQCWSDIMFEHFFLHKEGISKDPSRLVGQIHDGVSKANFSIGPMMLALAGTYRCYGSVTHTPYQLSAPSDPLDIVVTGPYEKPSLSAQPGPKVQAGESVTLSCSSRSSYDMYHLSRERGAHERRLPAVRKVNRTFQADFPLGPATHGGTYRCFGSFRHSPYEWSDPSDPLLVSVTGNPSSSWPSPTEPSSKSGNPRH
Sequence of soluble KIR3DL1*033-Fc (human) (P43629 other isoform, or with tags, fused parts or gaps): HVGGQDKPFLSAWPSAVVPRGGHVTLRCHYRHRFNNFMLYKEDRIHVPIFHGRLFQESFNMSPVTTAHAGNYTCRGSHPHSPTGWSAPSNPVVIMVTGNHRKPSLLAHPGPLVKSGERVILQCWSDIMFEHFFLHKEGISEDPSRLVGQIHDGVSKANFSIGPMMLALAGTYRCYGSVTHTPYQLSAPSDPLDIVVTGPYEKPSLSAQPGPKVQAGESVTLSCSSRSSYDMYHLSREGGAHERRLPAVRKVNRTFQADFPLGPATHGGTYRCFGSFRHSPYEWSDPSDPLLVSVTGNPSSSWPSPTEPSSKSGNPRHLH

The pKd is −log10 of the Kd, conventionally taken in molar units. The low end stands for a high Kd, the high end for a low Kd. What is called koff is the rate constant with which the complex falls apart. A higher koff goes with a short-lived complex. What is called kon is the rate constant with which the complex forms. On to DX9 (PHB4385) (antibody), for which the negative logarithm of the Kd (pKd) in assay [1] was 8.07; in assay [2], 7.51; in assay [3] it was 7.85; in assay [4], 7.51. Also, the koff in assay [4] came to 0.000992 s⁻¹. Besides, the kon in assay [4] stood at 32400 M⁻¹ s⁻¹.

The values are drawn from patent US20200031927A1.
